According to patent publication US20100055104A1 (NEUTEC PHARMA, published 2010):
Ends that are not written are not given here.

How the values were obtained:
[1] = target: T1, recombinant hsp90 from Candida albicans (Candida albicans, UniProt P46598 1-707); assay: Biacore SPR; Candida hsp90 amine-coupled to CM-5 chip, Mycograb injected; 1:1 Langmuir fit
T1 construct: also called Candida hsp90; Candida albicans hsp90

recombinant human hsp90α = target: T2, recombinant human hsp90α (human, UniProt P07900 1-732, limits assumed); assay: Biacore SPR; human hsp90α amine-coupled to CM-5 chip, Mycograb injected; 1:1 Langmuir fit
T2 construct: also called human hsp90a; human hsp 90 alpha

[2] = target: T3, biotinylated LKVIRK peptide (SEQ ID NO: 4) (also: biotinylated, site not given here); assay: Biacore SPR; biotinylated peptide captured on SA chip, Mycograb injected; 1:1 Langmuir fit
T3 construct: Captured non-covalently on a Sensor Chip SA; Any spacer between the biotin and the peptide is not described; also called immobilised peptide
T3 peptide: LKVIRK

T1 sequence (P46598 whole entry): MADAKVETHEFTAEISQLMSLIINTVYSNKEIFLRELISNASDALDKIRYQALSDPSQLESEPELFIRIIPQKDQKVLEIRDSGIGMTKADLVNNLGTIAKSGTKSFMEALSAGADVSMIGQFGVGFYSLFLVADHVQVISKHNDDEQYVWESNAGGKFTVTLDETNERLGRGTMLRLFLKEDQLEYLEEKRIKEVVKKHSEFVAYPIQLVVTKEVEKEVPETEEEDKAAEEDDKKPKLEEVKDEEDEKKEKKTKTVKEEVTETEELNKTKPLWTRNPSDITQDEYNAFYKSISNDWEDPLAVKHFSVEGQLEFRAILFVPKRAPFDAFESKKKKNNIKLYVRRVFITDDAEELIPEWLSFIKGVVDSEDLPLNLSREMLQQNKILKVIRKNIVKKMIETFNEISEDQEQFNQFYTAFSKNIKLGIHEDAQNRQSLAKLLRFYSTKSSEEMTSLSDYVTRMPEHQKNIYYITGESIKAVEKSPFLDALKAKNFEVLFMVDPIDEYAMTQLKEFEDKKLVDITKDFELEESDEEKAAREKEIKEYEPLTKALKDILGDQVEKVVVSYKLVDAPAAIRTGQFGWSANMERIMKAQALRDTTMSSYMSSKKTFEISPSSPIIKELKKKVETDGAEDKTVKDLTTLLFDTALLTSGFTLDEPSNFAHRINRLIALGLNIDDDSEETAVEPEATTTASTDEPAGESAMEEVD

B1: Mycograb® (antibody component, SEQ ID NO: 1) (antibody)
chain: HMAEVQLVESGAEVKKPGESLRISCKGSGCIISSYWISWVRQMPGKGLEWMGKIDPGDSYINYSPSFQGHVTISADKSINTAYLQWNSLKASDTAMYYCARGGRDFGDSFDYWGQGTLVTVSSGGGGSGGGGSGGGGSDVVMTQSPSFLSAFVGDRITITCRASSGISRYLAWYQQAPGKAPKLLIYAASTLQTGVPSRFSGSGSGTEFTLTINSLQPEDFATYYCQHLNSYPLTFGGGTKVDIKRAA
notes: Formulated as described in WO-A-01/76627; also called Mycogab; Mycograbg
**Q.** How did the Kd [1] turn out when B1 was run?
**A.** 717 nM

**Q.** What about the koff [1] of the same binder?
**A.** 0.000267 s⁻¹

**Q.** What about the kon [1] of the same binder?
**A.** 373 M⁻¹ s⁻¹

**Q.** And the Kd (recombinant human hsp90α)?
**A.** 3270 nM

**Q.** What about the koff (recombinant human hsp90α) of the same binder?
**A.** 0.00321 s⁻¹

**Q.** And the kon (recombinant human hsp90α)?
**A.** 981 M⁻¹ s⁻¹

**Q.** What about the Kd [2] of the same binder?
**A.** 28.6 nM

**Q.** What about the koff [2] of the same binder?
**A.** 0.000647 s⁻¹

**Q.** What about the kon [2] of the same binder?
**A.** 22600 M⁻¹ s⁻¹
